Measured values as given in article PMC11782696, “Claudin-11 regulates immunological barrier formation and spermatogonial proliferation through stem cell factor” (Communications Biology, 2025).

Target: T1, MBP fusion protein of the PDZ1 domain (aa 19-113) of mouse ZO1 (mouse, UniProt P39447 19-113)
T1 construct: zonula occludens 1 (ZO1), mouse, PDZ1 domain, aa 19-113 of the 1,745-amino-acid protein; Expression vector provided by Masahiko Itoh; also called MBP-zPDZ1; PDZ1 of ZO1; source: E. coli DH5α, purified (amylose resin, eluted with 10 mM maltose)
T1 sequence (looked up): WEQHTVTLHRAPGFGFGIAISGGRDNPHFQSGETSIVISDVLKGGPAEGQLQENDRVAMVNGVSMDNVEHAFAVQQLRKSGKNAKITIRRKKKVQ
Assay: pull-down; GST-fused proteins on Glutathione Sepharose 4B beads incubated with eluted MBP-fused proteins at 4 °C overnight in buffer A (50 mM Tris-HCl pH 8.0, 50 mM NaCl, 1 mM EDTA, 1 mM DTT); washed three times; SDS-PAGE and Coomassie Brilliant Blue staining
Settings: both partners purified

- binding result: binds
B1: GST fusion protein of the C-terminal 29 amino acids of mouse CLDN11 (aa 179-207) (domain or fragment, UniProt Q60771 179-207, looked up)
chain: SGDAQSFGENRFYYSSGSSSPTHAKSAHV
notes: claudin-11 (CLDN11), mouse, C-terminal 29 amino acids, aa 179-207 of the 207-residue protein; also called GST-CL11; claudin-11 C-terminus
